From patent publication US20200002421A1 (AbbVie / Abbott, published 2020)
Where a chain is given by its changes, count along the chain named.

Target: T1, Human full length B7-H3 (human, UniProt Q5ZPR3 29-534)
T1 sequence: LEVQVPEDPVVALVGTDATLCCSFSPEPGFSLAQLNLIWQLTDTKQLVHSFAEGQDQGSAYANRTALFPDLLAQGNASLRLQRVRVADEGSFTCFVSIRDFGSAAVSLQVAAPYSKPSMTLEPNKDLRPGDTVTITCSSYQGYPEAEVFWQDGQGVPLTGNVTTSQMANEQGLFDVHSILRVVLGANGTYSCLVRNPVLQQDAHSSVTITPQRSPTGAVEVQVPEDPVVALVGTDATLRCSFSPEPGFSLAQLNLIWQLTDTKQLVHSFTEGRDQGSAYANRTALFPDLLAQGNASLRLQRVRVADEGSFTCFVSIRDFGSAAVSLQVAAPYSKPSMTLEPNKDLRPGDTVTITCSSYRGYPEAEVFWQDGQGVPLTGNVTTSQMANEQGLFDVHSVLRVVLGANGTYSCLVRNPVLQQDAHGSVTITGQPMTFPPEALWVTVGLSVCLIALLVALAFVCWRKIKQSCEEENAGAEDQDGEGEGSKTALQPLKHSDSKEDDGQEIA
Assay: cell-based or functional assay

B1: huAb13v1-CZ (antibody, human IgG1, kappa, L234A L235A, V domains shown)
VH: EVQLQESGPGLVKPSETLSLTCAVTGYSITSGYSWHWIRQFPGNGLEWMGYIHSSGSTNYNPSLKSRISISRDTSKNQFFLKLSSVTAADTAVYYCAGYDDYFEYWGQGTTVTVSS
VL: DIQMTQSPSSLSASVGDRVTITCKASQNVGFNVAWYQQKPGKSPKALIYSASYRYSGVPSRFSGSGSGTDFTLTISSLQPEDFAEYFCQQYNWYPFTFGQGTKLEIKR
modifications: synthon CZ on interchain Cys
EC50 nM H1650 (in vitro tumor cell cytotoxicity): 0.18 nM

B2: huAb13v1-XW (antibody, human IgG1, kappa, L234A L235A, V domains shown)
VH: B1 VH
VL: B1 VL
modifications: synthon XW on interchain Cys
EC50 nM H1650 (in vitro tumor cell cytotoxicity): 0.86 nM

B3: huAb13v1-SE (antibody, human IgG1, kappa, L234A L235A, V domains shown)
VH: B1 VH
VL: B1 VL
modifications: synthon SE on interchain Cys
EC50 nM H1650 (in vitro tumor cell cytotoxicity): 0.63 nM

B4: huAb13v1-SR (antibody, human IgG1, kappa, L234A L235A, V domains shown)
VH: B1 VH
VL: B1 VL
modifications: synthon SR on interchain Cys
EC50 nM H1650 (in vitro tumor cell cytotoxicity): 0.59 nM

B5: huAb13v1-YG (antibody, human IgG1, kappa, L234A L235A, V domains shown)
VH: B1 VH
VL: B1 VL
modifications: synthon YG on interchain Cys
EC50 nM H1650 (in vitro tumor cell cytotoxicity): 0.33 nM

B6: huAb13v1-KZ (antibody, human IgG1, kappa, L234A L235A, V domains shown)
VH: B1 VH
VL: B1 VL
modifications: synthon KZ on interchain Cys
EC50 nM H1650 (in vitro tumor cell cytotoxicity): 179 nM

B7: huAb3v2.5-CZ (antibody, human IgG1, kappa, L234A L235A, V domains shown)
VH: EVQLVQSGAEVKKPGSSVKVSCKASGYTFSSYWMHWVRQAPGQGLEWIGLIHPESGSTNYNEMFKNRATLTVDRSTSTAYMELSSLRSEDTAVYYCAGGGRLYFDYWGQGTTVTVSS
VL: DIVMTQSPLSLPVTPGEPASISCRSSQSLVHSNRDTYLRWYLQKPGQSPQLLIYKVSNRFSGVPDRFSGSGSGTDFTLKISRVEAEDVGVYYCSQSTHVPYTFGGGTKVEIKR
modifications: synthon CZ on interchain Cys
EC50 nM H1650 (in vitro tumor cell cytotoxicity): 0.4 nM

B8: huAb3v2.5-TX (antibody, human IgG1, kappa, L234A L235A, V domains shown)
VH: B7 VH
VL: B7 VL
modifications: synthon TX on interchain Cys
EC50 nM H1650 (in vitro tumor cell cytotoxicity): 0.62 nM

B9: huAb3v2.5-TV (antibody, human IgG1, kappa, L234A L235A, V domains shown)
VH: B7 VH
VL: B7 VL
modifications: synthon TV on interchain Cys
EC50 nM H1650 (in vitro tumor cell cytotoxicity): 0.53 nM

B10: huAb3v2.5-YY (antibody, human IgG1, kappa, L234A L235A, V domains shown)
VH: B7 VH
VL: B7 VL
modifications: synthon YY on interchain Cys
EC50 nM H1650 (in vitro tumor cell cytotoxicity): 0.71 nM

B11: huAb3v2.5-AAA (antibody, human IgG1, kappa, L234A L235A, V domains shown)
VH: B7 VH
VL: B7 VL
modifications: synthon AAA on interchain Cys
EC50 nM H1650 (in vitro tumor cell cytotoxicity): 0.85 nM

B12: huAb13v1-TX (antibody, human IgG1, kappa, L234A L235A, V domains shown)
VH: B1 VH
VL: B1 VL
modifications: synthon TX on interchain Cys
EC50 nM H1650 (in vitro tumor cell cytotoxicity): 0.22 nM

B13: huAb3v2.5-AAD (antibody, human IgG1, kappa, L234A L235A, V domains shown)
VH: B7 VH
VL: B7 VL
modifications: synthon AAD on interchain Cys
EC50 nM H1650 (in vitro tumor cell cytotoxicity): 0.49 nM

B14: huAb3v2.5-WD (antibody, human IgG1, kappa, L234A L235A, V domains shown)
VH: B7 VH
VL: B7 VL
modifications: synthon WD on interchain Cys
EC50 nM H1650 (in vitro tumor cell cytotoxicity): 0.83 nM

B15: huAb3v2.5-LB (antibody, human IgG1, kappa, L234A L235A, V domains shown)
VH: B7 VH
VL: B7 VL
modifications: synthon LB on interchain Cys
EC50 nM H1650 (in vitro tumor cell cytotoxicity): 2.59 nM

B16: huAb3v2.5-ZT (antibody, human IgG1, kappa, L234A L235A, V domains shown)
VH: B7 VH
VL: B7 VL
modifications: synthon ZT on interchain Cys
EC50 nM H1650 (in vitro tumor cell cytotoxicity): 0.95 nM

B17: huAb3v2.5-ZZ (antibody, human IgG1, kappa, L234A L235A, V domains shown)
VH: B7 VH
VL: B7 VL
modifications: synthon ZZ on interchain Cys
EC50 nM H1650 (in vitro tumor cell cytotoxicity): 1.1 nM

B18: huAb3v2.5-XW (antibody, human IgG1, kappa, L234A L235A, V domains shown)
VH: B7 VH
VL: B7 VL
modifications: synthon XW on interchain Cys
EC50 nM H1650 (in vitro tumor cell cytotoxicity): 2.18 nM

B19: huAb3v2.5-SE (antibody, human IgG1, kappa, L234A L235A, V domains shown)
VH: B7 VH
VL: B7 VL
modifications: synthon SE on interchain Cys
EC50 nM H1650 (in vitro tumor cell cytotoxicity): 0.85 nM

B20: huAb3v2.5-SR (antibody, human IgG1, kappa, L234A L235A, V domains shown)
VH: B7 VH
VL: B7 VL
modifications: synthon SR on interchain Cys
EC50 nM H1650 (in vitro tumor cell cytotoxicity): 0.59 nM

B21: huAb3v2.5-YG (antibody, human IgG1, kappa, L234A L235A, V domains shown)
VH: B7 VH
VL: B7 VL
modifications: synthon YG on interchain Cys
EC50 nM H1650 (in vitro tumor cell cytotoxicity): 0.71 nM

B22: huAb3v2.5-KZ (antibody, human IgG1, kappa, L234A L235A, V domains shown)
VH: B7 VH
VL: B7 VL
modifications: synthon KZ on interchain Cys
EC50 nM H1650 (in vitro tumor cell cytotoxicity): 0.87 nM

B23: huAb13v1-TV (antibody, human IgG1, kappa, L234A L235A, V domains shown)
VH: B1 VH
VL: B1 VL
modifications: synthon TV on interchain Cys
EC50 nM H1650 (in vitro tumor cell cytotoxicity): 0.43 nM

B24: huAb3v2.6-CZ (antibody, human IgG1, kappa, L234A L235A, V domains shown)
VH: B7 VH
VL: B7 VL with R34Q
modifications: synthon CZ on interchain Cys
EC50 nM H1650 (in vitro tumor cell cytotoxicity): 0.4 nM

B25: huAb3v2.6-TX (antibody, human IgG1, kappa, L234A L235A, V domains shown)
VH: B7 VH
VL: B7 VL with R34Q
modifications: synthon TX on interchain Cys
EC50 nM H1650 (in vitro tumor cell cytotoxicity): 0.47 nM

B26: huAb3v2.6-TV (antibody, human IgG1, kappa, L234A L235A, V domains shown)
VH: B7 VH
VL: B7 VL with R34Q
modifications: synthon TV on interchain Cys
EC50 nM H1650 (in vitro tumor cell cytotoxicity): 0.52 nM

B27: huAb3v2.6-YY (antibody, human IgG1, kappa, L234A L235A, V domains shown)
VH: B7 VH
VL: B7 VL with R34Q
modifications: synthon YY on interchain Cys
EC50 nM H1650 (in vitro tumor cell cytotoxicity): 0.72 nM

B28: huAb3v2.6-AAA (antibody, human IgG1, kappa, L234A L235A, V domains shown)
VH: B7 VH
VL: B7 VL with R34Q
modifications: synthon AAA on interchain Cys
EC50 nM H1650 (in vitro tumor cell cytotoxicity): 1.24 nM

B29: huAb3v2.6-AAD (antibody, human IgG1, kappa, L234A L235A, V domains shown)
VH: B7 VH
VL: B7 VL with R34Q
modifications: synthon AAD on interchain Cys
EC50 nM H1650 (in vitro tumor cell cytotoxicity): 0.85 nM

B30: huAb3v2.6-WD (antibody, human IgG1, kappa, L234A L235A, V domains shown)
VH: B7 VH
VL: B7 VL with R34Q
modifications: synthon WD on interchain Cys
EC50 nM H1650 (in vitro tumor cell cytotoxicity): 0.79 nM

B31: huAb3v2.6-LB (antibody, human IgG1, kappa, L234A L235A, V domains shown)
VH: B7 VH
VL: B7 VL with R34Q
modifications: synthon LB on interchain Cys
EC50 nM H1650 (in vitro tumor cell cytotoxicity): 2.07 nM

B32: huAb3v2.6-ZT (antibody, human IgG1, kappa, L234A L235A, V domains shown)
VH: B7 VH
VL: B7 VL with R34Q
modifications: synthon ZT on interchain Cys
EC50 nM H1650 (in vitro tumor cell cytotoxicity): 1.11 nM

B33: huAb3v2.6-ZZ (antibody, human IgG1, kappa, L234A L235A, V domains shown)
VH: B7 VH
VL: B7 VL with R34Q
modifications: synthon ZZ on interchain Cys
EC50 nM H1650 (in vitro tumor cell cytotoxicity): 1.35 nM

B34: huAb13v1-AAA (antibody, human IgG1, kappa, L234A L235A, V domains shown)
VH: B1 VH
VL: B1 VL
modifications: synthon AAA on interchain Cys
EC50 nM H1650 (in vitro tumor cell cytotoxicity): 0.37 nM
